The target in the data set is WRKY6-His (UniProt Q9C519). Nature of the data set: EMSA. The note with it: EMSA: 20 uL, 0.5 ug protein, 1 uL of 50 ug/mL biotin probe, 2 uL 10x buffer (1x = 10 mM Tris, 50 mM KCl, 1 mM DTT, pH 7.5), 1 uL 1% NP-40, 0.5 uL 1 mg/mL …. (Mobility shift assays separate free from complexed probe on a gel.)
WRKY6-His, sequence (Q9C519 whole entry): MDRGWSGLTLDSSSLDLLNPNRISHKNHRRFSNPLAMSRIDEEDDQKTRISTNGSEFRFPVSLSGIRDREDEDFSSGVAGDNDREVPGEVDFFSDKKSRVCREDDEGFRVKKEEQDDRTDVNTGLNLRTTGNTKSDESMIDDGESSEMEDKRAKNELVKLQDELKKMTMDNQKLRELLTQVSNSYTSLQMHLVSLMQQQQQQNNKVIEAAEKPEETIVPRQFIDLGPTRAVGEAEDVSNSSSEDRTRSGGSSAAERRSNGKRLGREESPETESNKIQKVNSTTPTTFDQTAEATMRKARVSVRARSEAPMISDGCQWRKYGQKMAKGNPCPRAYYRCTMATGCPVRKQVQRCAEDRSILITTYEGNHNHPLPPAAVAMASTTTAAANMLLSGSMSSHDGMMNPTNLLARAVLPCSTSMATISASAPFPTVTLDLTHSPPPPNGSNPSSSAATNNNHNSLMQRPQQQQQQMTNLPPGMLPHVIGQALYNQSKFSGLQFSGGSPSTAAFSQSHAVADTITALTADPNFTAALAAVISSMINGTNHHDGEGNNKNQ
With “GATAAGATCGTAAGCTATCCACATCACTTGTTAATTGTCCTCAAACCATATTATATAATGCAAACAATTTATGGCGTTAAATCCTTACGTATTTATTCTCTATAAGAGTAAAACACACACACTGAAGGCAACTGATTTAATTGGATTTCTATACGTCAGTAGAAATACTTGTTATGATGTCGGTCGCTCGTTGGCTAAGTATTTCTTATAAATATATAAGACATATTTAAAATCTTTTTACATTACATACACCCACTTATGAGAAAC (double strand) [RAV1 promoter P2 mutant]”, the binding result is “no binding”.

As to “GATAAGATCGTAAGCTATCCACATCACTTGTTAATTGTCCTCAAACCATATTATATAATGCAAACAATTTATGGCGTTAAATCCTTACGTATTTATTCTCTATAAGAGTAAAACACACACACTGAAGGCAACTGATTTAATTGGATTTCTATTGACCAGTAGAAATACTTGTTATGATGTCGGTCGCTCGTTGGCTAAGTATTTCTTATAAATATATAAGACATATTTAAAATCTTTTTACATTACATACACCCACTTATGAGAAAC (double strand) [RAV1 promoter P2]”, the binding entry is reported as “binds”. With “GGAAAATTCCTATTTTCCCGATTACATTTTAACACATCAAAATAGGTACTGTGTTTTATAAATCTGAACAAACAATTAGTAATGTTCATACTTTAACATTTAAAAAATTCAAATTATCTACCTCAACTCTTACTTTTGTACATAATTATGAGTCAACGTTAGTTATGGTAATTAACAGTAACGGTTGTTGAATCAGCTAACACTTGTACGTCGAGATGGCATGTTCTTCAAACCAAAT (double strand) [ABI3 promoter fragment]” the entry was “binds”.

(Values after publication PMC4734665.)
